Test results published in patent US5503978, “Method for identification of high affinity DNA ligands of HIV-1 reverse transcriptase” (University Research Corporation).

Tests used:
[1] = biological target: T1, HIV-1 reverse transcriptase (HIV-1, UniProt P04585;P04585 P04585:588-1147,P04585:588-1027); test: filter; nearly as high as full-length RT1; conditions: tags: overexpressed in E. coli, purified per Davies et al. 1991
[2] = biological target: T1, HIV-1 reverse transcriptase; test: inhibition; Ki' for RNA-dependent DNA polymerase activity; conditions: tags: overexpressed in E. coli, purified per Davies et al. 1991
From the text: (§1) A substrate for the RNA-dependent DNA polymerase activity of HIV-1 RT was assembled by annealing an 18 nucleotide, 5' end-labeled DNA primer to a 30 nucleotide RNA template with a complementary 3' end (see FIG. 10), and purifying the duplex on a 12% non-denaturing acrylamide gel. The primer sequence matched the 3' terminal 18 nucleotides of tRNA^{Lys,3}, responsible for priming minus-strand DNA synthesis of the HIV-1 genome, and the template sequence paralleled the HIV-1 genomic primer binding site and downstream 12 nucleotides. A dilution series of inhibitory ssDNA ligand (to give a final concentration of 0, 1, 3, 9, 27, or 81 nM) was denatured in HRT Buffer at 70° C. for 5 minutes and allowed to renature slowly at 20° C. The primer:template substrate was added to a final concentration of 40 nM, along with dNTP's at 400 µM. The 10 µl reaction was initiated with the addition of either HIV-1, AMV, or MMLV-RT (to give a final concentration of 10 nM), allowed to proceed for 5 minutes at 37° C., and terminated with one volume of formamide. Extension products were separated on an 8% denaturing acrylamide gel and quantitated with an Ambis radioanalytic imager.
The ability of each of the 8 isolates to inhibit the RNA-dependent DNA polymerase activity of HIV-1 RT was assayed by measuring the decrease in extension product formation from a primer:template substrate as a function of inhibitor concentration (FIGS. 10A–10E). The substrate for the inhibition assay was a DNA:RNA heteroduplex consisting of an 18 nucleotide end-labeled DNA primer identical in sequence to the 3' end of tRNA^{Lys,3} annealed to a 30 nucleotide RNA template whose sequence matches the genomic primer binding site and the first twelve transcribed nucleotides. Extension reactions were performed as described in Example 1 in the presence of 0, 81, 27, 9, 3, and 1 nM inhibitor as indicated in FIG. 10.

[3] = biological target: T1, HIV-1 reverse transcriptase; test: filter; HRT buffer, 6 mM MgCl2, 37 C; conditions: tags: overexpressed in E. coli, purified per Davies et al. 1991, label: 5'-32P
[4] = biological target: T1, HIV-1 reverse transcriptase; test: filter; HRT buffer, 37 C; conditions: tags: overexpressed in E. coli, purified per Davies et al. 1991; pseudoknot
[5] = biological target: T1, HIV-1 reverse transcriptase; test: competition; Kc for displacement of RT1; conditions: tags: overexpressed in E. coli, purified per Davies et al. 1991; pseudoknot
Protocol: To test this, we measured the ability of the ssDNA ligand RT1 (SEQ ID NO:71) to maintain its specific binding contacts with HIV-1 RT in the presence of high concentrations of RNA pseudoknot (see FIG. 8). […] The percent of RT1 bound in the presence of competitor relative the percent bound in the absence of competitor is plotted as a function of RNA pk concentration. […] As shown graphically in FIG. 14, when a stoichiometric equivalent of RNA pk was added, approximately one half of the complexed RT1 was displaced, and nearly all was displaced when a large excess of RNA was added. […] However, with this assay we are unable to distinguish between an interaction of both ligands at a common site or an interaction of each at different sites, with a conformational change upon binding the first that prevents subsequent binding of the second.

[6] = biological target: T1, HIV-1 reverse transcriptase; test: inhibition; Ki' for RNA-dependent DNA polymerase activity; 37 C, 40 nM primer:template; conditions: tags: overexpressed in E. coli, purified per Davies et al. 1991; label: 5'-32P; long interrupted helix with AA/CG internal loop
From the text: as §1, with “imager. […]” for “imager.”

ATCCGCCTGAATAGCGATACTCAGAAGGATAAACTGTCCAGAACTTGGA (ssDNA) [RT1t49]
Kd [1]: 4 nM

B1: RT6 (ssDNA)
DNA: ATCCGCCTGATTAGCGATACTCAGGCGTTAGGGAAGGGCGTCGAAAGCAGGGTGGGACTTGAGCAAAATCACCTGCAGGGG
Ki ([2]; label: 5'-32P): 30 nM
Kd [3]: 5 nM

B2: RT8 (ssDNA)
DNA: ATCCGCCTGATTAGCGATACTAGCCAGTCAAGTTAATGGGTGCCATGCAGAAGCAACTTGAGCAAAATCACCTGCAGGGG
Ki ([2]; label: 5'-32P, internal loop CAA opposite TAG): 13 nM

GGUCCGAAGUGCAACGGGAAAAUGCACU (ssRNA) [RNA pseudoknot (RNA pk)]
Ki ([2]; pseudoknot): 4.7 nM
Kd [4]: 5 nM
Ki [5]: 3 nM

B3: RT4 (ssDNA)
DNA: ATCCGCCTGATTAGCGATACTTTAGCAAAGTTGAAGCCGGACTAACAAGCTCTACGACTTGAGCAAAATCACCTGCAGGGG
Ki ([2]; label: 5'-32P, internal loop AA opposite AG): 4.1 nM

B4: RT1 (ssDNA)
DNA: ATCCGCCTGATTAGCGATACTCAGAAGGATAAACTGTCCAGAACTTGGAATATATCACTTGAGCAAAATCACCTGCAGGGG
Ki [6]: 0.3 nM
Kd ([3]; long interrupted helix with AA/CG internal loop): ~1 nM

B5: RT26 (ssDNA)
DNA: ATCCGCCTGATTAGCGATACTTACGTGAGCGTGCTGTCCCCTAAAGGTGATACGTCACTTGAGCAAAATCACCTGCAGGGG
Ki ([2]; label: 5'-32P, intramolecular primer:template junction, AA/CG internal loop): 2.7 nM
Kd ([3]; intramolecular primer:template junction, AA/CG internal loop): ~1 nM

B6: RT10 (ssDNA)
DNA: ATCCGCCTGATTAGCGATACTTATTTGCCCTTGCAGGCCGCAGGAGTGCTAGCAGTACTTGAGCAAAATCACCTGCAGGGG
Ki ([2]; label: 5'-32P, intramolecular primer:template junction (3' AGGGG paired with CCCCT)): 62 nM

B7: RT36 (ssDNA)
DNA: ATCCGCCTGATTAGCGATACTAAGCTCTTAGTTGATGCGCGGTCAAAATTTAAGCTACTTGAGCAAAATCACCTGCAGGGG
Ki ([2]; label: 5'-32P, internal loop AA opposite A): 6.5 nM
